Results: paper PMC3279538 (Diabetes, 2010)

Molecular target: endogenous B7-H1 wild type (NOD mouse, from wild-type spleen) (mouse (endogenous in NOD spleen), UniProt Q9EP73 19-290)
Assay: SPR

Sequence of endogenous B7-H1 wild type (NOD mouse, from wild-type spleen) (Q9EP73 19-290): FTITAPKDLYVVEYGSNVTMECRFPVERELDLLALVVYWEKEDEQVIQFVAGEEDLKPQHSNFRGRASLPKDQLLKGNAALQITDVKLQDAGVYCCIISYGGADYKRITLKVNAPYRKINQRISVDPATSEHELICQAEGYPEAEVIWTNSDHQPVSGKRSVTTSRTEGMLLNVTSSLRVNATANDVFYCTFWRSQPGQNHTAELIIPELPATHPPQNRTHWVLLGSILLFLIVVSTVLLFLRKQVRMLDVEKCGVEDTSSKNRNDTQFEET

Kd: 11 nM
koff: 0.0017 s⁻¹
B1: PD-1 receptor (receptor, UniProt Q02242 25-169, looked up)
chain: LEVPNGPWRSLTFYPAWLTVSEGANATFTCSLSNWSEDLMLNWNRLSPSNQTEKQAAFCNGLSQPVQDARFQIIQLPNRHDFHMNILDTRRNDSGIYLCGAISLHPKAKIEESPGAELVVTERILETSTRYPSPSPKPEGRFQGM
